These results are taken from patent publication US20200317755A1.

Like-named read-outs stand apart in the source and are kept apart here.

Experiment [1] concerns the target T1, panel of four distinct ZIKV strains (H/PF/2013; MR766, MRS-OPY and PV 10552). Kind of experiment: cell-based or functional assay.
Experiment [2] deals with T1, panel of four distinct ZIKV strains …. The experiment is described as follows: cell-based or functional assay. This is another data set of the same source.

B1: ZKA190 (antibody, V domains shown)
VH: QVQLVESGGGVVQPGRSLRLSCAASGFTFSKYGMHWVRQAPGKGLEWVAVISYEGSNKYYADSVKGRFTISRDNSKNTLYLQMNSLRAEDTAVYYCAKSGTQYYDTTGYEYRGLEYFGYWGQGTLVTVSS
VL: EIVLTQSPGTLSLSPGERATLSCRASQSVSSSYLAWYQQKRGQAPRLLIYDASSRATGIPDRFSGSGSGTDFTLTISRLEPEDFAVYYCQQYGRSRWTFGQGTKVEIK
Turning to B1, the values for the IC50, neutralization of four ZIKV strains on Vero cells (flow cytometry) in experiment [1] and in experiment [2] were 0.6 to 8 ng/mL and 4 to 50 pM, respectively.
